{
  "source": "patent US20050089938A1",
  "about": "“Use of peptide fragments of the calcium channel a-1 subunit, optionally comprising mutations, for screening molecules of therapeutic interest” (priority 2001, published 2005)",
  "molecules": {"B1": {"name": "I-II loop of the Cav2.1 sub-unit: I-II loop of the Cav2.1 calcium channel sub-unit; in cells coupled to CD8 transmembrane segment and GFP (protein, listed as Oryctolagus cuniculus)", "chain": "SGEFAKERERVENRRAFLKLRRQQQIERELNGYMEWISKAEEVILAEDETDVEQRHPFDGALRRATIKKSKTDLLHPEEAEDQLADIASVGSPFARASIKSAKLENSSFFHKKERRMRFYIRRMVKTQ"}},
  "key": {"Cav2.1 channel": {"target": "T1, Cav2.1 channel (Oryctolagus cuniculus, UniProt P27884)", "T1 construct": "expressed in transfected cells; host or cells: Xenopus laevis oocytes (cRNA injection)", "T1 sequence (P27884 whole entry)": "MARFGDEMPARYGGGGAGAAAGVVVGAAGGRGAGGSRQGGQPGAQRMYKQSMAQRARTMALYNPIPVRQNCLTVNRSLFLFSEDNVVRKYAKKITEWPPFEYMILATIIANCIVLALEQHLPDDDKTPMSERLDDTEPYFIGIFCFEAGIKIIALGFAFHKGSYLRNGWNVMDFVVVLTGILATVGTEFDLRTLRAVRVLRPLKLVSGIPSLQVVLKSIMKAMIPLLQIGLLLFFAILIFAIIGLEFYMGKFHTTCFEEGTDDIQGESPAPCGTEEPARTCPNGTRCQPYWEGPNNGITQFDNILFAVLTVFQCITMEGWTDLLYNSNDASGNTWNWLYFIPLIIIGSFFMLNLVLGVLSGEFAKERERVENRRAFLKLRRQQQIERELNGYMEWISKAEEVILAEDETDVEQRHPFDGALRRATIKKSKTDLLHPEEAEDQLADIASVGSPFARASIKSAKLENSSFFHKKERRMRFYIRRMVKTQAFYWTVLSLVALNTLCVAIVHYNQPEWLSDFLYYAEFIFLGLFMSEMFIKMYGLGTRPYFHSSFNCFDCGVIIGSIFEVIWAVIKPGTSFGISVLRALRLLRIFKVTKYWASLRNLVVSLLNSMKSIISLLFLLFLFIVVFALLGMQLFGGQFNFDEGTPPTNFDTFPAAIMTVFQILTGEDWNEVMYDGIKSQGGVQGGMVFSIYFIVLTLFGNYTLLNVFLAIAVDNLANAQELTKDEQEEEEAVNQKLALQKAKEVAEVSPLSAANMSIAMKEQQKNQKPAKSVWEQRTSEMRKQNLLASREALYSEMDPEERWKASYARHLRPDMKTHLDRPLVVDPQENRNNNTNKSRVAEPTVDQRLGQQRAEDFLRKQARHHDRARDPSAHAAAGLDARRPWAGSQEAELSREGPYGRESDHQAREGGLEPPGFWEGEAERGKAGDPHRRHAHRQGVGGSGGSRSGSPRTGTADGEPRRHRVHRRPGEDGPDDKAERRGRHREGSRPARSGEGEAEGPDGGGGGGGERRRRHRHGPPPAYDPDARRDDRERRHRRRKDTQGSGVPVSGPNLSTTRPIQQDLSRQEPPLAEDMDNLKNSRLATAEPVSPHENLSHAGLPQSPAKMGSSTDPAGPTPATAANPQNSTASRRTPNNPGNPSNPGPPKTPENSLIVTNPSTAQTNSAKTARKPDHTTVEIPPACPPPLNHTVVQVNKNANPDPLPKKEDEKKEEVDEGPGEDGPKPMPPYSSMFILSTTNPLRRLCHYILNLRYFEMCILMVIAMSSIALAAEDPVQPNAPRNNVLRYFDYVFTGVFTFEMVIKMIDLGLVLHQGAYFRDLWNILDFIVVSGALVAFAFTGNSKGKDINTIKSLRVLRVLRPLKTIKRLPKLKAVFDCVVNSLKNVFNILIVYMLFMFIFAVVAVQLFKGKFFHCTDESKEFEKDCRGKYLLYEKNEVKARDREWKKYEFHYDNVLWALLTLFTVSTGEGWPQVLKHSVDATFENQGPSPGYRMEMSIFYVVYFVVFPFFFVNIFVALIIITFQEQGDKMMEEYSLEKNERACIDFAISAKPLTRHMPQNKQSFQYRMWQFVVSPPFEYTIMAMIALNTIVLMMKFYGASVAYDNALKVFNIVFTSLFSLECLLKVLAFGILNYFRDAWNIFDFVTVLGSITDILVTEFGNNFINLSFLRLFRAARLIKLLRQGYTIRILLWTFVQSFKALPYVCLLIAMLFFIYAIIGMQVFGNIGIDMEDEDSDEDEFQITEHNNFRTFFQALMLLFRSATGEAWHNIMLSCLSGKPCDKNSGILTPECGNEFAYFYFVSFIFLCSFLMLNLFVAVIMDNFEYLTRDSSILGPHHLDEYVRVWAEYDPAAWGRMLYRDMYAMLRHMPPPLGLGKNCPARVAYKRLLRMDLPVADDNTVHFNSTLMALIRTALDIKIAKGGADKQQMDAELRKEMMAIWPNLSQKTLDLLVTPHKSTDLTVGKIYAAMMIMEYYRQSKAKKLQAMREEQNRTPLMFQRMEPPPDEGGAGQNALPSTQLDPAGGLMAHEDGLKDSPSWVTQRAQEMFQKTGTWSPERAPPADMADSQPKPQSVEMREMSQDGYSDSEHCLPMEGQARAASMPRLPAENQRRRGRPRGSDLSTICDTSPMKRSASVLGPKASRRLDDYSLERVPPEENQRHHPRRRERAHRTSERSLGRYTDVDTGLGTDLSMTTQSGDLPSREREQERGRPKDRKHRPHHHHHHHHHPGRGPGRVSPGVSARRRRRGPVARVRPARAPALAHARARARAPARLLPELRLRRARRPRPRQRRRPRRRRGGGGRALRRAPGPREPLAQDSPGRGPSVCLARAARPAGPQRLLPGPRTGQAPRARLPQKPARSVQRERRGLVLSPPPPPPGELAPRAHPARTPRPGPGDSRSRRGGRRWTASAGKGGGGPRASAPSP", "assay": "Inactivation kinetics of the Cav2.1 channel expressed in Xenopus oocytes, two-electrode voltage-clamp Ba2+ currents", "type": "cell-based, rabbit", "procedure": "Xenopus oocytes are removed at Stages V and VI from ovaries of Xenopus laevis frogs from South Africa and maintained in standard saline solution (Barth's medium). The cells are treated with collagenase type IA (2 mg/ml) for two hours and the follicular membranes are eliminated manually. The oocytes are maintained in DNOM medium (defined nutrient oocyte medium) for 2 days before injection of cRNA coding for the Cav2.1 channel. The injection of this cRNA coding for the wild-type or mutated channel is carried out at a concentration of 0.3 μg/μl. In the case of coinjection of other cRNAs (for example: CD8-III-IV, III-IV, etc.), these cRNAs are injected at a concentration of 0.1 μg/μl. The injections of III-IV peptide are carried out at a final intracellular concentration of 10 μM. […] Following the cRNA injections, the cells are kept at 16° C. in DNOM medium for a minimum of 4-5 days before continuing with the electrophysiological recordings.\nWe applied the two-electrode voltage-clamp technique for the recordings of Ba^2+ currents (the Ba^2+ is more permeable than the Ca^2+ through the high-threshold calcium channels and facilitates our analyses). The recordings are carried out with a GeneClamp amplifier from Axon Instruments (Foster City, Calif.). […] The data are analyzed with the pCLAMP software suite version 6.03 (Axon Instruments). […]"}, "III-IV loop of Cav2.1": {"target": "T2, III-IV loop of Cav2.1 (Oryctolagus cuniculus, UniProt P27884)", "T2 construct": "This III-IV loop has been expressed and purified as a GST (Glutathione-S-Tranferase) fusion protein; made in house", "T2 sequence (P27884 1521-1575)": "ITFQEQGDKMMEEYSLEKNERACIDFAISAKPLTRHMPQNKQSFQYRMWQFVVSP", "assay": "Binding of 35S-methionine labelled in vitro translated I-II loop to GST-III-IV fusion protein", "design": "species or system rabbit", "details": "35S-methionine labelled I-II loop, absence of β sub-unit", "text": "FIG. 2: Binding of the I-II loop of Cav2.1 to different intracellular loops. […] This III-IV loop has been expressed and purified as a GST (Glutathione-S-Tranferase) fusion protein. The I-II protein of the channel has been translated in vitro and labelled by a radioactive amino acid (^35S-methionine) in order to monitor its binding to the GST-III-IV fusion protein.\nThese two amino acids are therefore indispensable to the binding of the I-II loop to the III-IV loop in the absence of the β sub-unit of the calcium channel."}, "[1]": {"tested_on": "high threshold calcium channels", "assay": "High-threshold calcium current after expression of the I-II loop in rat cerebellum granular cells", "type": "cell-based", "details": "rat cerebellum granular cells transfected with I-II loop coupled to CD8 transmembrane segment and GFP", "text": "(§1) The expression of the I-II loop of the Cav2.1 channel is induced following a cell transfection method (thanks to a transfection agent: lipofectamine, fugene etc.). In order to have the ability to bind the endogenous β sub-units to these cells, we have noted that the ability of this I-II sequence to reduce the expression at the plasma membrane of the endogenous high-threshold calcium channels is facilitated by its coupling to a transmembrane segment. The Inventors have used for their experiments the transmembrane segment of the α chain of the human CD8 receptor, coupled to the amino-terminal part of the I-II loop. In order to facilitate the detection of the transfected cells, the carboxy-terminal part of the I-II loop was coupled to GFP protein (Green Fluorescent Protein) which has the property of green fluorescence (easily detectable in fluorescence microscopy). FIG. 1A illustrates the construction used for these experiments. FIG. 1B illustrates the amino-acid sequence of the transmembrane sequence of the α chain of the CD8 receptor."}, "[2]": {"tested_on": "high threshold calcium channels", "assay": "High-threshold calcium current after expression of the I-II loop in bovine chromaffin cells", "type": "cell-based", "details": "bovine chromaffin cells transfected with I-II loop coupled to CD8 transmembrane segment and GFP", "text": "as §1"}},
  "data": [
    {"molecule": "peptide representing the 40 carboxy-terminal amino acids of the III-IV loop: peptide representing the 40 carboxy-terminal amino acids of the III-IV loop of Cav2.1 (LEKNERACIDFAISAKPLTRHMPQNKQSFQYRMWQFVVSP)", "values": [
      {"measurement": "effect on inactivation kinetics of the Cav2.1 channel", "setting": "Cav2.1 channel; peptide free in the cytoplasm, injected, final intracellular concentration 10 μM", "result": "acceleration is similar"}
    ]},
    {"molecule": "III-IV loop: III-IV loop of Cav2.1 expressed coupled in amino-terminal position with the α chain of the human CD8 receptor", "values": [
      {"measurement": "effect on inactivation kinetics of the Cav2.1 channel", "setting": "Cav2.1 channel; III-IV loop associated with the plasma membrane via amino-terminal coupling to α chain of human CD8 receptor, cRNA coinjection", "result": "accelerates the inactivation kinetics"}
    ]},
    {"molecule": "B1", "values": [
      {"measurement": "binding to the GST-III-IV fusion protein", "setting": "III-IV loop of Cav2.1", "result": "binding of I-II is evident"},
      {"measurement": "reduction of the high-threshold calcium current", "setting": "[1]", "result": "more than 50%"},
      {"measurement": "reduction of the high-threshold calcium current", "setting": "[2]", "result": "more than 50%"}
    ]}
  ]
}
